Experimental data published in patent publication US20170204158A1 (Regeneron, published 2017).

T1: monkey IL-33 expressed with C-terminal hexahistidine tag (MfIL-33-6His) (cynomolgus monkey (M. fascicularis))
T1 construct: also called M. fascicularis IL-33-6His; cynomolgus monkey IL-33
T1 chain: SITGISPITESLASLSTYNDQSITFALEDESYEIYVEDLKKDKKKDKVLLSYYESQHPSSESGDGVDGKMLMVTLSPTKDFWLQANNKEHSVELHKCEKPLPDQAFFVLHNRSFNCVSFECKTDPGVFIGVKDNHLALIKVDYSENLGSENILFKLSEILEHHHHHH

T2: mouse IL-33 (R&D Systems, # 3626-ML-010/CF) (mouse, UniProt Q8BVZ5 109-266)
T2 construct: Commercial protein; also called mIL-33; mIL33
T2 sequence (looked up): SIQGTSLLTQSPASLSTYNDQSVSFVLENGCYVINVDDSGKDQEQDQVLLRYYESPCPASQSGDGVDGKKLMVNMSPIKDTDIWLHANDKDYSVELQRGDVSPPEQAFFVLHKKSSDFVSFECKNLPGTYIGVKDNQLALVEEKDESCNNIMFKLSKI

T3: human IL-33 (R&D Systems, # 3625-IL-010/CF) (human, UniProt O95760 112-270, biotinylated in the blocking ELISA of Example 3 (sites not given))
T3 construct: Commercial protein; also called hIL-33; biot-hIL-33
T3 sequence (looked up): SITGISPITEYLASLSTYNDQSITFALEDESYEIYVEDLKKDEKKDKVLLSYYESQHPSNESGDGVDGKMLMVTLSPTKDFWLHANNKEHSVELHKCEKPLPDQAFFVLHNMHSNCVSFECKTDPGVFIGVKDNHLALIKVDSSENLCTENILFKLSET

B1: mST2-mIL1RAcP-mFc (Fc fusion)
chain: SKSSWGLENEALIVRCPQRGRSTYPVEWYYSDTNESIPTQKRNRIFVSRDRLKFLPARVEDSGIYACVIRSPNLNKTGYLNVTIHKKPPSCNIPDYLMYSTVRGSDKNFKITCPTIDLYNWTAPVQWFKNCKALQEPRFRAHRSYLFIDNVTHDDEGDYTCQFTHAENGTNYIVTATRSFTVEEKGFSMFPVITNPPYNHTMEVEIGKPASIACSACFGKGSHFLADVLWQINKTVVGNFGEARIQEEEGRNESSSNDMDCLTSVLRITGVTEKDLSLEYDCLALNLHGMIRHTIRLRRKQPIDHRSERCDDWGLDTMRQIQVFEDEPARIKCPLFEHFLKYNYSTAHSSGLTLIWYWTRQDRDLEEPINFRLPENRISKEKDVLWFRPTLLNDTGNYTCMLRNTTYCSKVAFPLEVVQKDSCFNSAMRFPVHKMYIEHGIHKITCPNVDGYFPSSVKPSVTWYKGCTEIVDFHNVLPEGMNLSFFIPLVSNNGNYTCVVTYPENGRLFHLTRTVTVKVVGSPKDALPPQIYSPNDRVVYEKEPGEELVIPCKVYFSFIMDSHNEVWWTIDGKKPDDVTVDITINESVSYSSTEDETRTQILSIKKVTPEDLRRNYVCHARNTKGEAEQAAKVKQKVIPPRYTVESGEPRGPTIKPCPPCKCPAPNLLGGPSVFIFPPKIKDVLMISLSPIVTCVVVDVSEDDPDVQISWFVNNVEVHTAQTQTHREDYNSTLRVVSALPIQHQDWMSGKEFKCKVNNKDLPAPIERTISKPKGSVRAPQVYVLPPPEEEMTKKQVTLTCMVTDFMPEDIYVEWTNNGKTELNYKNTEPVLDSDGSYFMYSKLRVEKKNWVERNSYSCSVVHEGLHNHHTTKSFSRTPGK
notes: also called fourth IL-33 antagonist; mouse IL-33 Trap
B2: hST2-mFc (Fc fusion)
chain: KFSKQSWGLENEALIVRCPRQGKPSYTVDWYYSQTNKSIPTQERNRVFASGQLLKFLPAAVADSGIYTCIVRSPTFNRTGYANVTIYKKQSDCNVPDYLMYSTVSGSEKNSKIYCPTIDLYNWTAPLEWFKNCQALQGSRYRAHKSFLVIDNVMTEDAGDYTCKFIHNENGANYSVTATRSFTVKDEQGFSLFPVIGAPAQNEIKEVEIGKNANLTCSACFGKGTQFLAAVLWQLNGTKITDFGEPRIQQEEGQNQSFSNGLACLDMVLRIADVKEEDLLLQYDCLALNLHGLRRHTVRLSRKNPIDHHSEPRGPTIKPCPPCKCPAPNLLGGPSVFIFPPKIKDVLMISLSPIVTCVVVDVSEDDPDVQISWFVNNVEVHTAQTQTHREDYNSTLRVVSALPIQHQDWMSGKEFKCKVNNKDLPAPIERTISKPKGSVRAPQVYVLPPPEEEMTKKQVTLTCMVTDFMPEDIYVEWTNNGKTELNYKNTEPVLDSDGSYFMYSKLRVEKKNWVERNSYSCSVVHEGLHNHHTTKSFSRTPGK
notes: also called second IL-33 antagonist; ST2 receptor protein

Key:
[1] = target: T1, monkey IL-33 expressed with C-terminal …; test: SPR (Biacore T-200), 37 C; Fc fusion captured by anti-Fc antibody, MfIL-33-6His injected
Description: (§1) The Biacore sensor surface was first derivatized by amine coupling a polyclonal rabbit anti-mouse antibody (GE, # BR-1008-38) or with a monoclonal mouse anti-human Fc antibody (GE, # BR-1008-39) to capture IL-33 Trap and receptor proteins with a C-terminal mouse IgG2a Fc tag or a C-terminal human IgG1 Fc tag, respectively. Kinetic experiments were carried out in 0.01 M HEPES pH 7.4, 0.15 M NaCl, 3 mM EDTA, and 0.005% v/v Surfactant Tween-20 (HBST running buffer). Different concentrations of human IL-33, mouse IL-33 or MfIL-33-6His prepared in HBST running buffer (ranging from 60 nM to 27.4 pM, 3-fold dilutions, for Trap proteins and ranging from 60 nM to 0.25 nM, 3-fold dilutions, for ST2 receptor proteins) were injected over the captured IL-33 Trap and receptor protein surfaces at a flow rate of 50 μL/minute. Association of different IL-33 proteins to the different capture surfaces was monitored for 7 minutes for Trap proteins or 4 minutes for ST2 receptor proteins and their dissociation in HBST running buffer was monitored for 14 minutes for Trap proteins or 8 minutes for ST2 receptor proteins. Kinetic association (ka) and dissociation (kd) rate constants were determined by fitting the real-time binding sensorgrams to a 1:1 binding model using Scrubber 2.0c curve-fitting software. Binding dissociation equilibrium constants (KD) and dissociative half-lives (t½) were calculated from the kinetic rate constants as: […]

[2] = target: T2, mouse IL-33 (R&D Systems, # …); test: SPR (Biacore T-200), 25 C; Fc fusion captured by anti-Fc antibody, mouse IL-33 injected
Description: as §1

[3] = target: T3, human IL-33 (R&D Systems, # …); test: SPR (Biacore T-200), 37 C; Fc fusion captured by anti-Fc antibody, IL-33 injected
Description: as §1

[4] = target: T3, human IL-33 (R&D Systems, # …); test: SPR (Biacore T-200), 25 C; Fc fusion captured by anti-Fc antibody, IL-33 injected
Description: as §1

[5] = target: T3, human IL-33 (R&D Systems, # …); test: competition ELISA; antagonist pre-mixed with 20 pM biotin-hIL-33, binding to plate-coated human ST2-Fc; highest concentration tested
Description: (§2) The ability of exemplary IL-33 antagonists of the invention to block human IL-33 (hIL-33) binding to the human ST2 receptor was measured using a competition sandwich ELISA. A portion of human ST2 protein ecto domain that was expressed with a C-terminal mouse Fc tag (SEQ ID NO:2) was coated at a concentration of 1 μg/mL in PBS buffer on a 96-well microtiter plate overnight at 4° C. […] Biotinylated hIL-33 protein (R&D systems, #3625-IL/CF) (biot-hIL-33) was added to achieve a constant final concentration of 20 pM to serial dilutions of IL-33 antagonists ranging from 0 to 100 nM. The mixture was incubated for 1 hour at room temperature (RT) before transfer to the hST2-hFc coated microtiter plates. After incubation for 1 hour at RT, the wells were then washed, and plate-bound biot-hIL-33 was detected with HRP-conjugated streptavidin (Thermo Scientific, # N200). All samples were developed with a TMB solution (BD biosciences, # 51-2607KC) to produce a colorimetric reaction and then quenched by acidification with 1M sulfuric acid before measuring absorbance at 450 nm on a Victor X5 plate reader (PerkinElmer). Data analysis was performed using a sigmoidal dose-response model within Prism™ software. […] Maximum blocking values represent the ability of the antagonists to block IL-33 binding relative to baseline. The absorbance measured at the constant amount of hIL-33 on the dose curve was defined as 0% blocking and the absorbance with no added IL-33 was defined as 100% blocking. The absorbance values of the wells containing the highest concentration tested for each antagonist were used to determine the maximum blocking percent.

[6] = target: T2, mouse IL-33 (R&D Systems, # …); test: SPR (Biacore T-200), 37 C; Fc fusion captured by anti-Fc antibody, mouse IL-33 injected
Description: as §1

[7] = target: T3, human IL-33 (R&D Systems, # …); test: competition ELISA; antagonist pre-mixed with 20 pM biotin-hIL-33, binding to plate-coated human ST2-Fc
Description: as §2

[8] = target: T2, mouse IL-33 (R&D Systems, # …); test: cell-based or functional assay
[9] = target: T3, human IL-33 (R&D Systems, # …); test: cell-based or functional assay
[10] = target: T1, monkey IL-33 expressed with C-terminal …; test: cell-based or functional assay
[11] = target: T1, monkey IL-33 expressed with C-terminal …; test: SPR (Biacore T-200), 25 C; Fc fusion captured by anti-Fc antibody, MfIL-33-6His injected
Description: as §1

60 nM Mouse IL-33 Bound (RU) [2] [RU]	Kd [2] [pM]	koff [2] [s⁻¹]	kon [2] [M⁻¹ s⁻¹]	t1/2 [2] [min]	60 nM Human IL-33 Bound (RU) [4] [RU]	Kd [4] [pM]	koff [4] [s⁻¹]	kon [4] [M⁻¹ s⁻¹]	t1/2 [4] [min]	% Maximum blocking [5] [%]	IC50 [7] [pM]	IC50 (M), inhibition of 30 pM mouse IL-33 activation of HEK293/hST2/NFkB-luciferase cells [8] [M]	IC50 (M), inhibition of 5 pM human IL-33 activation of HEK293/hST2/NFkB-luciferase cells [9] [M]	IC50 (M), inhibition of 5 pM monkey IL-33 activation of HEK293/hST2/NFkB-luciferase cells [10] [M]	also measured	Binder
22	10.5	4.94e-05	4.73e+06	234	22	70.9	0.00129	1.82e+07	9	97	112	8.7e-12	4.8e-10	6.4e-11	60 nM Monkey IL-33 Bound (RU) [1]: 21 RU; Kd [1]: 190 pM; koff [1]: 0.00117 s⁻¹; kon [1]: 6.16e+06 M⁻¹ s⁻¹; t1/2 [1]: 10 min; 60 nM Human IL-33 Bound (RU) [3]: 20 RU; Kd [3]: 353 pM; koff [3]: 0.00322 s⁻¹; kon [3]: 9.11e+06 M⁻¹ s⁻¹; t1/2 [3]: 4 min; 60 nM Mouse IL-33 Bound (RU) [6]: 20 RU; Kd [6]: 21.3 pM; koff [6]: 0.000128 s⁻¹; kon [6]: 6e+06 M⁻¹ s⁻¹; t1/2 [6]: 90 min; 60 nM Monkey IL-33 Bound (RU) [11]: 23 RU; Kd [11]: 53.5 pM; koff [11]: 0.000244 s⁻¹; kon [11]: 4.55e+06 M⁻¹ s⁻¹; t1/2 [11]: 47 min	B1
18	88.2	0.00035	3.97e+06	33	24	53.6	0.000307	5.72e+06	38	100	16.9	1.4e-10	1.2e-11	5.5e-12	–	B2
